A protein production outcome set (Wang et al. 2014)

Assay: label from the status in PepcDB records
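Also: failed if final PepcDB status was selected cloned or expressed and not failed if soluble or beyond.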

Sequence | protein production
MVVNKRLILILLFILNTAKSDELSWKGNDFTLYARQMPLAEVLHLLSENYDTAITISPLITATFSGKIPPGPPVDILNNLAAQYDLLTWFDGSMLYVYPASLLKHQVITFNILSTGRFIHYLRSQNILSSPGCEVKEITGTKAVEVSGVPSCLTRISQLASVLDNALIKRKDSAVSVSIYTLKYATAMDTQYQYRDQSVVVPGVVSVLREMSKTSVPTSSTNNGSPATQALPMFAADPRQNAVIVRDYAANMAGYRKLITELDQRQQMIEISVKIIDVNAGDINQLGIDWGTAVSLGGKKIAFNTGLNDGGASGFSTVISDTSNFMVRLNALEKSSQAYVLSQPSVVTLNNIQAVLDKNITFYTKLQGEKVAKLESITTGSLLRVTPRLLNDNGTQKIMLNLNIQDGQQSDTQSETDPLPEVQNSEIASQATLLAGQSLLLGGFKQGKQIHSQNKIPLLGDIPVVGHLFRNDTTQVHSVIRLFLIKASVVNNGISHGLEHHHHHH | not failed
MVVRQIRALLSSLLWAWRRARLQGRSAFQLVRACLREGAKGPRHFARRMAAYASGGSASPPPVSLDAYESWHSALPQLEVPADSGMISVIIPVCNTPELFLREAIESVRTQTYQNWEICIHDDASNEPHVGRILAEFKKRIPNLRVTRSETRSGIAATTNAALASARGRWVTFLDHDDVLDRNALAAVVDCHIKTGSAVVYTDHDMLGEDGRLRNPYFKPDWNYDLFLAQMYLGHLVSFEHDLIKRVGLTRSECDGSQDYDLVLRCVAAGAKVGHVPRVLYHWRMHAGSTAANADSKPYAHDSGKRAIQYHVDAVYPGAQVEDGPHLFCYDVRYPYAQHAPKASIIIPTRDGLDLLRPCIESIQGRTDYTNFEIIVVDNGSKDPATLEWLDAMSNEPWFRVLQADVPFNWSALNNLAAASAEGEVLVFLNNDTEVASADWLQRLVENALRPDVGACGALLLYADGSIQHAGVVVGMGGWADHVFKGQQPIHHQHLFVSPILRREVLAVTGACVAISRANFDAIGGFDESFVVCGSDVELCLRAMANGKRTVYVPEAILIHHESKTRDPRVIPESDFVRSAQAYSPYRESGDPFYSPNLDYMSPSPALRGAQADA | failed
MVVSKMNKDAQMRAAINQKLIETGERERLKELLRAKLIECGWKDQLKAHCKEVIKEKGLEHVTVDDLVAEITPKGRALVPDSVKKELLQRIRTFLAQHASL | failed
MVVSLCSPGKCRKGTIVSRASLRANEGRRIERSTIAPSDLPPFRSRVSQPELPVERADHDADSVADGGWQATLCALEALAGGVDEAAGTGDGRRLLWALTLDADGVVGTIEPLEQTHGARGWSKPRPVPLARVAEDDTLPQWDVRVARAIRRDASRNRRHVLDRAAAVVALVGHPAVVLSHAPTVPMEVVESAPSLEAVREGDRYVLRIVPPLREALAMEDFLPAAARQEAESLRQITVLQDGPRRLRVVRFTPAQQGAAKLIAGGLSVPADAQARLDSTLRALAGHFQIHADSSGEARERDPESRLRAEVAPVGRGISLRLVVTPLGVLGPRLAPGHGRAQLMATIGGETHVTYRDLDAEHAHVAEVFEALPFLVQQAPAGGEHTWTLDDPEDALTAIEVLPGLAGVIDLEWPRGRELRVLPADIAQLAVSVETGSEWFKLVGELRVAEGLVISLEKLVAWAHGHAGRFMPMAHGVYVALTRQLRDRLRDLAGVGDGVRDGIRVPLVAAPWLDDVLAGAGIDPDAHFRTRVKQLRAARGHDAPVPPTLVAELRPYQLEGFRWMMSLAEAGFGACLADDMGLGKTLQSLAVLLARAAGGPALVVAPTSVCGNWATEARRFAPALRVHVYADGDREAIVGQAAAHDLVIVSYNLLQQARKAFCDRHWHTVVADEAQSFKNPSSRRAQAMFALPADCRIALSGTPVENRLAELWAVMRFCVPGLLGSLARFNEHFANPIERSGARDPRQRLRRMIAPFVLRRTKAQVLDELPPRTELVIRVTPEPTEAAHYEALRRQALSEAERALLRPRKDKKAPAAMTEPEARIHVLAQLMRMRRAACDPRLVTPDVGQPGAKVRAFAELAATLAANGHKTLVFSQFVDFLQMLRQALVDAGLAWQYLDGATPAGERTRRVAAFQAGEGDVFLISLKAGGFGLNLTAADYIVIADPWWNPAAEDQAMGRAHRIGQQRPVTVYRLIAAGTIEERIVDLHQGKRALADGVLDAMDGEAIGRDVPLPDVDELVGLLRR | failed
MVVTPLIVLLVSVLGYANLNSTELGKLKLNRLVPSRLAITLFISGTVILFGAVFATFLLLLLWGLITLVVSGSLSSAWVAMQTLTGSPGGVEPDKSSVLLLFTIGLVISFLSVTKFQSKADANWKQNNSKFLIHKLVDDELELFLLRALEMDDFIPHNGDESPDKRMLVRVVLSNRKVYIGNLIRCDITRGVCSNIVLVPMHSGYQDESTLELQLTEHYEKHYSAELSSDATELQIKDFLNQYSLTIPVHHLVTASLFDLTAYQKFLTEKLNSM | failed
MVVVTGREPDSRRQDGAMSSSDAEDDFLEPATPTATQAGHALPLLPQEFPEVVPLNIGGAHFTTRLSTLRCYEDTMLAAMFSGRHYIPTDSEGRYFIDRDGTHFGDVLNFLRSGDLPPRERVRAVYKEAQYYAIGPLLEQLENMQPLKGEKVRQAFLGLMPYYKDHLERIVEIARLRAVQRKARFAKLKVCVFKEEMPITPYECPLLNSLRFERSESDGQLFEHHCEVDVSFGPWEAVADVYDLLHCLVTDLSAQGLTVDHQCIGVCDKHLVNHYYCKRPIYEFKITW | not failed
MVWDRATPFVIDLNVGAEDIDGLGHANNAVYVSWLERCAWRHSQFLGLDLTEYQRLDRAMAVVRHEIDYLASAYESDELQLATWITDWDRRLKMTRCFQLKRPADNLTLLRAQTTFVCIELSSGRPKRMPAEFIEGYGAAIPLEHHHHHH | failed
MVWGTFLKNKKPYSIKRQLTLSVGLLVSALLLISLYFSFQSAKHEVEEVYDARLGQSAKLMLLTLSISTETDTLANHRELFDQWMKNIDSLAKSDEDKATKFGHPYEQNLVFQFYRDNKLIWSSTPNLRSLSSSFYNNGYADITKDGVQWRTFQLSLPQTEHENEYVVVAEKQKIRKEIIHEIALSTSIEQLLLLPTLLLLLFWLIDRYFRPINDLRTAITQRNVHRLDRIHVTDNTTELAPLVEALNSLLSELEQAWQREKRFTRAAAHELKTPLTILRLNVENALESNDPEQLRGDLHNILQGIERTDRLIHQLLTLAKVDSLSERVFDNVELTPLLQTVVADLAPLALRQDQDISLSPAEVALSGDKMLLEVLFRNLVDNAIRYSGAHSEIQVSVQENRNAIKILISDTGPEIPQETRERIFEQFYRGHSEKGDGAGLGMSICKDIATLHSAIIELIPRENGKNTFVVAFPKH | failed
MWAHCSAIARTMVYPSFFCSGDWLKVAAENLCPGDEAYILLAKDADDIRGVLPLVRKRNALGGTDLHYLGSDFYPDPLGLICSPADRADCAAALRNHLLNAPDWDRLILDFLLEDEPADWTLPGKPVSVAPFKVLPRDFSELLGEFKKKKRYNLRAMVKKLLDAGGELAASSGPESNIAYLDALFFLHEKRASERSLDSSFTGPRVQSLHRALVAASDNVRFFGLRLNGQMIAVIYGFEFCNRFFYYQVAHDPDHGHLSPGTVLLYLVIEACCVNGLTEFNFLQGDETYKGIWTNDSRILYRCVLNRSTWRSRVFSAVEESRGYVKRAMGLMSRGN | failed
MWCGRNAPPRRIRRHTASKSASTAAKGGVRRACPGIVSITRPFDRTRYGSQIPPMPAISIIARTRRKDDHGRVPIRLRISHRGEKRFIALPVKVLAKKWNGDKRRVTGTHPDAGEINTFLSDLERAAFSVISRLERAGTLITAQRIKDEIQEEREEVKSAPEDFLAFAREKVKGYKRRGQIGTFRSYRTTCRKFTAFIEETYGRDEVPFGALEAELFREFRTYCYEERGNSTNTVGRELGIMRTLVRHAMKEGKLSAYPFEHITIDSEPSQKELLTPEEVERIADLEIDEESPAAEARRWFLFAYYAGGMRFSDVATLQWQHIREGRSGRPRVCYKMKKTADTVGVPLIPEAKEILCRYEEGDGEDWVFPISEGIDPGNEEALHRRKCQRNSAANRHLKELAGQAGIEKRVTFHLSRNAAAWKLYQNVGDIYKVSKFLGHSNVEQTQDYIDGFVDESRDEDFIAAMT | failed
MWDLNIKESTMTRNGKAKRPLPLAASVAMYAIAIILAAATAIGNVYANKYSDLISVYFNQPTSKVVSASNETTEHFTSDYASDDEREQALADMGTTILREGVTLLKNENGTLPLEATSKISVFGQDSVDSVYGGGGAGSIDTSKAQSLMDAFEQAGFDVNPTLTEFYTTGAGKDYRKTSTDAYGKGTFAVNEVPASAYTDDVKKSFASYNDAAIVVIGRSGSESQDLPTDKLASGYTYLQLDDDERAMLKMASDNFDKVVVLLNTQNPMELADLEDDSIDAVMWIGSLGQTGAGGVAEALNGTVNPSGHLPDTYAYDLKSAPSSANFGSYAIVNGTDRFTSSYMAYAEGIYVGYRYYETRYEDVVLGNEARSNYDYTKQVAYPFGYGLSYTDFTWSDYSMKKADGGFDISVKVTNTGKTAGKDVVQLYMQSPYTDYDKANGIEKASVELVGYAKTDTLKAGASETVTVHVDQESMKTYDSTGEGTYIMDAGDYYLAVGTDAHNALNNILAAKGKTTADGMTENGNAALAAKHTVHSQDNTTYAKSAATDEKISNQFDDVDLTTYDNSFTYLSRSDWTGSWPATYADGKWTASQKFLDALNIDTAQSEPEQKPTTDTDNPSYGKLNASMLMDADYADESWSALIGQMSVKELDQLVRIGGYATKSVSSTQLPATTDKDGPAGISSTLVGGESGMGYPSEIVIAATWNSDLAESFGKAIGEDSLALKVAVWYGPACNIHRNPYGGRAFEYFSEDSYLSGAMCAKVVAGAGSKGVVSTVKHFALNDQETNRMGGAIFANEQTIRQLYLRPFEMSVRDGGATAMMASMNRIGSRWTGGHKGLMTNTLRGEWGFNGFVVTDQASYSVFAYEDLREGLEAGTDLWLNTDAGLWKLPDDDMTDGVIANMQRAAHNISYAISRSNAMNGLSANSKIVKVTPLWRWGVYALDGVVTVGAVALIAIATLQILRRRKRDATVAAETGEPAANDGE | failed
MWDVIVVGGGPSGLSAALFLARAGLKVLVLDGGRSKVKGVSRVPNYPGLLDEPSGEELLRRLEAHARRYGAEVRPGVVKGVRDMGGVFEVETEEGVEKAERLLLCTHKDPTLPSLLGLTRRGAYIDTDEGGRTSYPRVYAAGVARGKVPGHAIISAGDGAYVAVHLVSDLRGEPYKDHAL | not failed
MWEIYDAMINGIPEDFLVDELVCGTTHSVIRSGNGVGLGPNRPFETRMPMLTQNLLGLPLRVAAGCVKSWNYVEASIGLAAINAYYNNPQVAREHGVIFSDAKRVEDRMNDPFIMSQNEVKGKKVGVVGHFPHLESLLEPICDLSILEWSPEEGDYPLPASEFILPECDYVYITCASVVDKTLPRLLELSRNARRITLVGPGTPLAPVLFEHGLQELSGFMVKDNARAFRIVAGAEKVKIYSAGQKVTIKK | not failed
MWIAVSAVNLALAVILGAFGAHGLKAYASPAKLAWWQTATDYFFYHALGLLVLGVISKTYTVLPIKSSFILIQIGILFFCGSLYLMALGLPRGFGAITPIGGAFMILGWIVLAWNAVKYAK | failed
MWIGSVFMRKSFVISLLSAGILLAGCQAVNTTSGGAVGVERQQYMFSMLSTDEVNQMYAQSYQQTLGEASSKGVLDKSSADAKRVQAIANRLIAQAPKFRPDAAQWDWQVNVIKSDELNANCGPGGKIIVYTGLIDQLKLTDAEIAAVVGHEIAHALREHSREAMSKAYGVEMARQGAGAIFGLGQSSMAMADTVVNYAMTLPNSRANENEADLIGLELSARAGYDPNAAITLWNKMSKASEGAPPEFMSTHPASASRIASLQAAIPKVMPLYQAAAKP | failed
MWKHVKQVDPEIYEVLVNELKRQEYGLELIASENFASLAVIETMGSMLTNKYAEGYPKKRYYGGCEWVDRAEERAIERAKRLFGAKFANVQPHSGSQANMAVYLALAQPGDTIMGMSLSHGGHLTHGAPVNFSGKIFKVVPYGVNLETETIDYDEVRRLALEHKPKIIVAGGSAYARIIDFKRFREIADEVGAYLMVDMAHFAGLVAAGIHPNPLEYAHVVTSTTHKTLRGPRGGLILTNDPEIAKAVDKTIFPGIQGGPLMHVIAAKAVCFKEAMTEEFKEYQKQVVKNAKKMAEEFQKRGYRIVSGGTDTHLFLVDLTPKDITGKAAEKALESCGITVNKNTIPNEKRSPFVASGIRIGTPAVTTRGMKEEEMEEIAEMIDLVLSNVIDENGTVKPEVREEVSKKVRELCERFPLYRDKIEGVEI | not failed
